Assay results reported in IntAct's records for PubMed 22902366.

B1: Macrophage colony-stimulating factor 1 (Homo sapiens), P09603 (parent)
chain: MTAPGAAGRCPPTTWLGSLLLLVCLLASRSITEEVSEYCSHMIGSGHLQSLQRLIDSQMETSCQITFEFVDQEQLKDPVCYLKKAFLLVQDIMEDTMRFRDNTPNAIAIVQLQELSLRLKSCFTKDYEEHDKACVRTFYETPLQLLEKVKNVFNETKNLLDKDWNIFSKNCNNSFAECSSQDVVTKPDCNCLYPKAIPSSDPASVSPHQPLAPSMAPVAGLTWEDSEGTEGSSLLPGEQPLHTVDPGSAKQRPPRSTCQSFEPPETPVVKDSTIGGSPQPRPSVGAFNPGMEDILDSAMGTNWVPEEASGEASEIPVPQGTELSPSRPGGGSMQTEPARPSNFLSASSPLPASAKGQQPADVTGTALPRVGPVRPTGQDWNHTPQKTDHPSALLRDPPEPGSPRISSLRPQGLSNPSTLSAQPQLSRSHSSGSVLPLGELEGRRSTRDRRSPAEPEGGPASEGAARPLPRFNSVPLTDTGHERQSEGSFSPQLQESVFHLLVPSVILVLLAVGGLLFYRWRRRSHQEPQRADSPLEQPEGSPLTQDDRQVELPV
B2: Secreted protein BARF1 (Epstein-Barr virus (strain B95-8) (HHV-4)), P03228 (parent)
chain: MARFIAQLLLLASCVAAGQAVTAFLGERVTLTSYWRRVSLGPEIEVSWFKLGPGEEQVLIGRMHHDVIFIEWPFRGFFDIHRSANTFFLVVTAANISHDGNYLCRMKLGETEVTKQEHLSVVKPLTLSVHSERSQFPDFSVLTVTCTVNAFPHPHVQWLMPEGVEPAPTAANGGVMKEKDGSLSVAVDLSLPKPWHLPVTCVGKNDKEEAHGVYVSGYLSQ
partner: B1 chain

Variants of: B1
Settings: with csf1r_human CSF1R

Variant | effect of a mutation on the interaction
MTAPGAAGRCPPTTWLGSLLLLVCLLASRSITEEVSEYCSAMIGSGALQSLQRLIDSQMETSCQITFEFVDQEQLKDPVCYLKKAFLLVAAIMEDTMRFRDNTPNAIAIVQLQELSLRLKSCFTKDYEEHDKACVRTFYETPLQLLEKVKNVFNETKNLLDKDWNIFSKNCNNSFAECSSQDVVTKPDCNCLYPKAIPSSDPASVSPHQPLAPSMAPVAGLTWEDSEGTEGSSLLPGEQPLHTVDPGSAKQRPPRSTCQSFEPPETPVVKDSTIGGSPQPRPSVGAFNPGMEDILDSAMGTNWVPEEASGEASEIPVPQGTELSPSRPGGGSMQTEPARPSNFLSASSPLPASAKGQQPADVTGTALPRVGPVRPTGQDWNHTPQKTDHPSALLRDPPEPGSPRISSLRPQGLSNPSTLSAQPQLSRSHSSGSVLPLGELEGRRSTRDRRSPAEPEGGPASEGAARPLPRFNSVPLTDTGHERQSEGSFSPQLQESVFHLLVPSVILVLLAVGGLLFYRWRRRSHQEPQRADSPLEQPEGSPLTQDDRQVELPV [H41A;H47A;Q90A;D91A] | decreasing interaction strength

Variants of: B2
Settings: with csf1_human CSF1, P09603

Variant | effect of a mutation on the interaction
MARFIAQLLLLASCVAAGQAVTAFLGERVTLTSAWAAAALGPEIEVSWFKLGPGEEQVLIGRMHHDVIFIEWPFRGFFDIHRSANTFFLVVTAANISHDGNYLCRMKLGETEVTKQEHLSVVKPLTLSVHSERSQFPDFSVLTVTCTVNAFPHPHVQWLMPEGVEPAPTAANGGVMKEKDGSLSVAVDLSLPKPWHLPVTCVGKNDKEEAHGVYVSGYLSQ [Y34A;R36A;R37A;V38A;S39A] | decreasing interaction strength
MARFIAQLLLLASCVAAGQAVTAFLGERVTLTSAWAAAALGPEIEVSWFKLGPGEEQVLIGRMHHDVIFIEWPFRGFFDIHAAAAAFFLVVTAANISHDGNYLCRMKLGETEVTKQEHLSVVKPLTLSVHSERSQFPDFSVLTVTCTVNAFPHPHVQWLMPEGVEPAPTAANGGVMKEKDGSLSVAVDLSLPKPWHLPVTCVGKNDKEEAHGVYVSGYLSQ [Y34A;R36A;R37A;V38A;S39A;R82A;S83A;N85A;T86A] | decreasing interaction strength
